From US20240173424A1, “ANTI-NECTIN-4-ANTIBODY EXATECAN CONJUGATES” (EMERGENCE THERAPEUTICS AG, priority 2021, published 2024)

Legend:
In vivo half-life = conditions: due to a lower absorption rate in the skin
[1] = test system: SUM190PT cells and normal human differentiated keratinocytes; type: cell-based
Procedure: FIG. 10: Differential in vitro cytotoxic activity to tumor cells and normal differentiated human keratinocytes. […] Viability (MTT assay) after a 5-days incubation period is reported. EC50 values were determined by GraphPad Prism 9 software using non-linear curve fitting (4 parameters). […] Data shown is representative of 2 different Nectin-4 expressing tumor cell lines (SUM190PT and MDA-MB468) and 3 independent donors for human keratinocytes.
To analyze the in vitro cytotoxic activity of ADC, cell viability was assessed using the AlamarBlue staining protocol as recommended by the manufacturer (Biosource, CA, USA). The test incorporates a fluorescent oxidation-reduction indicator. Fluorescence intensity is proportional to cellular metabolic reduction. Experiments were done by incubating 3000 cells/well (SUM190PT or differentiated NHEK) in triplicate with serial dilutions of ADC at Day 0 in 96-wells plates. AlamarBlue was measured at Day 5 by incubating 1/10 volume of alamarBlue solution for 2 h at 37° C. and read at 595 nm (FLUOstar Optima, BMG Labtech).

[2] = biological target: T1, Nectin-4 expressed by tumors and Nectin-4 expressed by human keratinocytes (Homo sapiens, UniProt Q96NY8); assay: Differential binding to tumor cells and human keratinocytes
T1 construct: Cells or cell lines (10,000-50,000) expressing Nectin-4 (naturally or transfected); endogenous in cells; host or cells: SUM190/SUM190PT (also SUM149 in IHC), NHEK differentiated with 0.1 mM CaCl2, human skin sections
T1 sequence (Q96NY8 32-510): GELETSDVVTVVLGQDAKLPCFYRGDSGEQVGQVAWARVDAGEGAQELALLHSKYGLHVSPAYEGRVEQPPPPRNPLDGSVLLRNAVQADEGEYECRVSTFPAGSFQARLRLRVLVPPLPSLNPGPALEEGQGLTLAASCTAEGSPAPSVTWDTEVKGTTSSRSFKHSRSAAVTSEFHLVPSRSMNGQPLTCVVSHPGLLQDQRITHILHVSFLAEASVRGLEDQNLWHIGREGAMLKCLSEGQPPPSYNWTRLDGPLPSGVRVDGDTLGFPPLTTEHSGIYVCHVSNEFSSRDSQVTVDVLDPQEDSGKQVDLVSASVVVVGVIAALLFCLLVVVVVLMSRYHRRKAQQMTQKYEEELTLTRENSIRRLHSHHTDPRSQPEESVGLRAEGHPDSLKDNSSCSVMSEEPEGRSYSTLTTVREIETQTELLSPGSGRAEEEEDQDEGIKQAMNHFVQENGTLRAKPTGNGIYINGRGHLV
Excerpt: FIG. 6: Differential binding to Nectin-4 expressed by tumor cell line and normal differentiated human keratinocytes. […] Cells were then stained with phycoerythrin conjugate goat anti human Fc antibody. Normalized mean fluorescence intensities are shown. Non-linear curve fitting (4 parameters) was done with GraphPad Prism 9 software. Horizontal bar is placed at 50% of maximum staining intensity obtained with HA22 antibody on SUM190 cells.
FIG. 7: Differential binding to Nectin-4 expressed by tumor cell line and normal differentiated human keratinocytes. Detection by flow cytometry. • Flow cytometry analysis of TNBC cell line (SUM190, A) and normal differentiated (0.1 mM CaCl2) human keratinocytes (NHEK, B) using 5 μg/mL of HA22 (Enfortumab), Ch-5A12.2, Ch-15A7.5, and Ch-8F06. Cells were then stained with phycoerythrin conjugate goat anti human Fc antibody. Normalized mean fluorescence intensities are shown.
FIG. 8: Differential binding to Nectin-4 expressed by tumor cell line and human keratinocytes. Detection by immuno-histochemistry. Cryo-preserved OCT-embedded blocks of high expressing levels of Nectin-4 tumor cell line (SUM190), low expressing levels of Nectin-4 tumor cell line (SUM149), human and cynomolgus skin were processed for staining with 15A7.5 mAb (A) and 9A2.7 mAb (B). Quick score reported for each mAb are shown (A, B). C, ratio of quick score SUM190 over human skin. […]
Remaining blocks were stored at −80° C. until further use. […] Several dilution of each mAb were tested to optimize noise to signal ratio and 0.5 μg/ml of mouse 15A7.5 mAb and 10 µg/mL of mouse 9A2.7 mAb were determined as optimal. […] Both the stained cells proportion and the staining intensity were evaluated for each field. […] Scoring procedure was as follows: (i) The proportion of cells stained positively was estimated and a score from 0 to 4 was be assigned for each field (0=0-5%; 1=5-25%; 2=25-50%; 3=50-75%; and 4=75-100%); and (ii) The staining intensity was scored as 0, 1, 2, or 3 corresponding to the presence of negative, weak, intermediate, and strong brown staining, respectively. […]

[3] = test system: SUM190PT cells and normal human differentiated keratinocytes; assay: Internalization assay with pHAB dye conjugates, tumor cell line and keratinocytes; type: cell-based; conditions: in vitro, in reference to HA22 mAb (Enfortumab)
Procedure: FIG. 9: Differential internalization in tumor cell line and human keratinocytes. Detection by fluorescence Enfortumab (HA22), Ch-15A7.5 and Isotypic control mAbs were coupled to pHAB thiol reactive dye to reach dye antibody ratio comprised between 4.58 and 5.55. A dose range of each of these antibody dye conjugates (1.6 ng/ml-5 μg/mL) was incubated in duplicates with SUM190PT Nectin-4-expressing cell line (A) normal human differentiated (0.1 mM CaCl2) keratinocytes (B). Intracellular fluorescence was recorded after 24 hours with florescence microplate reader (ClarioStar). Reported are the fluorescence intensities in function of dye antibody conjugate concentration.
Ten thousand SUM190PT or human differentiated keratinocytes (0.1 mM CaCl2) were seeded in 96-wells plates and subsequently incubated for 24 hours at 37° C., with a dose range (1.6 ng/ml-1 μg/mL) of anti Nectin-4 mAbs and isotypic control conjugated with pHAB thiol reactive dye. Upon internalization and endo-lysosomal processing, the acidic environment causes the dye to fluoresce. Fluorescence intensity was monitored on a plate reader with an excitation at 532 nm and an emission at 560 nm.
The thiol reactive dye pHAB (Promega) was conjugated to cysteine of selected anti-Nectin-4 ThiomAb (D265C, L234A, L235A) antibodies using maleimide chemistry according to manufacturer's instructions. […]

B1: mAb 15A7.5: parental monoclonal anti-Nectin-4 antibody, CDRs SEQ ID NO: 1-12, VH/VL SEQ ID NO: 13/14 (antibody, V domains shown)
VH: EVKLVESGGGLVQPGGSRKLSCAASGFTFSNYGMAWVRQAPGKGPEWVAFISNLAYGINYADTVTGRFTISRENAKNTLYLEMRSLRSEDTAMYYCARGARATGWFAYWGQGTLVTVSA
VL: DIVMTQSQKFMSTSIGDRVSVTCKASQNVDTHVAWYQEKPGQSPKALIYSASYRYSGVPDRFTGSGSGTDFTLTISNVQSEDLADYFCQQYNSYPLTFGGGTKLEIK
modifications: VH_15A7.5; VK_15A7.5
In vivo half-life
  half-life: higher half-life
[1]
  cytotoxic activity towards keratinocytes in comparison to tumor cells: lower
[2]; in vitro differentiated Nectin-4 expressing keratinocytes
  affinity to Nectin-4 expressed by tumors in comparison to Nectin-4 expressed by human keratinocytes: higher affinity
[2]; in vitro, in reference to HA22 mAb (Enfortumab)
  binding affinity towards keratinocytes in comparison to tumor cells: lower binding affinity
[3]
  internalization towards keratinocytes in comparison to tumor cells: lower
